Assay: soluble on expression in E. coli; label from the status in PepcDB or PDB records

Sequence	soluble on expression in E. coli
MSQVKRANENRETARFIKKHKKQVTNPIDEKNGTSNCIVRVPIALYVSLAPMYLENPLQGVMKQHLNPLVMKYNNKVGGVVLGYEGLKILDADPLSKEDTSEKLIKITPDTPFGFTWCHVNLYVWQPQVGDVLEGYIFIQSASHIGLLIHDAFNASIKKNNIPVDWTFVHNDGNRSLGHWVDSNGEPIDGKLRFTVRNVHTTGRVVSVDGTLIS	soluble
MSRDTGDNLDRNQSGNLPMANVMDAYLSRRSVMRGSLGAAIAMIAGTGLTGCFDGGGSDHDDPVTEPPVTEPPVTEPEVPKLALGFQSIPGSRTDACVVAAGYSAYVLAPWGTPLNSNGNPWKSDGSNTSTDQANAMGMHHDGMHFFPINGSSEDGLLAINFEYIDTAALHPAGPTTDVNGKRPVEEVRKEINAHGAGVVRLQKINGRWQVVDNDPLNRRFTTASRMEITGPLRGTDHVKTKYSTAGTHCRGTNNNCGNGYTPWGTYLTCEENWPGIFVNKGTRPEDQRRIGVGTSSGQYKWESAAGDASEVDDEFARFDVTVKGASATDDYRNEASTYGYIVEIDPYNSSTLATKRTALGRFRHEGCAPGLPVAGKPLVWYMGDDSNNEYLYKWVSTAVWDPADATPADRLATGAKYLDQGKLYVARFNADGTGVWLLLDVATATTAGSTLGALYGDLPGIILNTRGAGDAVGATPMDRPEWTTVNPLNGDVYLTLTNNSARTPDKVDAANPRGPNRHGHIIRWHDSDDQLSFTWDIFVFGANAAGTADINRSGLTELNQFASPDGMSFDSRGVLWFETDNGETTLTDYTNDQLLAVIPTDLVDASGKQVPVNAQNQVDLRRFFVGPNGCEVTGITFTPDNKTLFVNIQHPDNWPYTDKATDATPAGATVRPRASTVVIQRIDGGEIGTV	not soluble
MSREDELLEKLDECENATAFLQVSNKIINLKLKALLPSVFVQDDLVKEYAVDPLLREDGPLVTTDVVSKLMFAMGKISLQTYADIGLYDQVLEYVVTQPEKIAFTDDVIYDFIKNQAVLSSQQDCFYLESINQLKFSSFESFSQMRYESLIKTVLKLSCEMLIERIEE	not soluble
MSRSRQPPLVTGISPNEGIPWTKVTIRGENLGTGPTDLIGLTICGHNCLLTAEWMSASKIVCRVGQAKNDKGDIIVTTKSGGRGTSTVSFKLLKPEKIG	soluble
MSRTYLELSQDDGSAHKFYEVTVQGQVVTVRYGRIGAAGQTQTSTFPTAQKAEAAAAKKIGEKVRKGYEAAVQGQRAPRAVSRRQVASAPSTARAVAPVLWRFRTGSAAFGIHIDEDRCWVGNQAGDVYTLAHGGEVLARYQLPDGVKCLVADDFWIYAGCDDGRVYDLSSKLPFAAYDIAADVDIFWLDIHEGVLNVADRAGRLTVIDHEDEHQWSRGGRGEHAWMVRADDRAVYHGHTRGVTAHSPDGGVELWHTPTQGAVLFGWQEDDAVYAGTARHTVQRLSKATGGIEATYHCDSPVYSCATSPGGRFVFAGDSASSVYCFDRDGTRLWKLGTGGGSALSMQYRDERLFLVTTDGSLVCVDASEAAVTAAQQGSVPVVRDVKLAATLPTYAPATAATAVTTVTVAPAGSVVVECVQENGRTRIHVVTEGYDRSWNVQFPRAIREPGARYVVDALHAASGGFYRVRGDIRRLRLEHHHHHH	not soluble
MSRVKNVVELLETKGVDALYLTKKTNVNYISGFPDEEAYAVICKDGNFLVTDSRYMELAEKVCKDFEIINWHNFDRSVAKAVKSVCDKVGIKKLGFERTNIVFDKYEELKNLIEKDNGELIPTENIVETLRYVKDKDEIKNTRKACEIADKALEELIPHIKAGVSEIELATKLEYFMKMNGAQNIGFETILISGAKTSLLHGKPSDKIIEKGDFVLIDYGAMYNGYISDTTRTFIVGGASEKQLEIYNLVKEAQNVGVENMKAGVHATIPDAEIRKVVKKYEDYYYQGIGHGVGRDVHEEPFIGNYGDKIIEEGCIITMEPGIYFPGWGGVRIEDTVLITKNGPERLTKFPKDLMILDK	not soluble
MSSAIERKSLDPSEEPVDEVLQIPPSLLTCGGCQQNIGDRYFLKAIDQYWHEDCLSCDLCGCRLGEVGRRLYYKLGRKLCRRDYLRLFGQDGLCASCDKRIRAYEMTMRVKDKVYHLECFKCAACQKHFCVGDRYLLINSDIVCEQDIYEWTKINGMI	not soluble
MSSDDYESIDTPRVASLADMNRLPTQSRHSSYSTDDDEDVTPTPSASNSAPKNTILDPLQAQFLHPNSENSDIDEPRVQLREKKKATRAQDATVSHFLEDQVPNQKFKRRSAERHSMLAGAADFASRRSPFHLSGANGSGRWTDLFSSSRFKRKQRQELNNVPSSSYSNNDYGTYAGTQSIGGFSIASNSTGESFALSGTEDEIREEFRKIMLDKGLPEADKIISNTPLDQMKMMIENSRKQDNQAKGRSPEWVVRVLGEILKTKNIPECKQDIVTVRVQLVGQGVSFLNKFAVEVHDESGRTGADLICCLYSLVLKRLRSSEVGSKYELDLIDFLQEIVRCVRTLINTHVGLVLVLRRNSPVYSLLIQTLCVLNRREQNDHEAAEIRAIRVDVVRTCYTLIFVQHDTLSTPIEMTGQQKMFMELSLIAKAESKRLNEPVSRFRPLISCIDFLESRDPKQGMYVLLMINMMINGVDRNISDDQMWTEETMWQARMRLRSEAAKDKLHKYIEKFTTSETVNSQIRDVAQNMLTEHNADLETLMGKLENVKGEYDTLDGCFELLAANSEATGTETVLLSILQLMTLTNEDMSTKRSYMKLIETAISDILLHRTPIDPQADYKFVFEVPVAEIIDKMQDEEMAKKVRQATSAKQEAVAMQGEYWKTLCDFQKEAEELRKHINDPKIPLPPPTKMNLSAPSTSAGGSSALPPITGGPPPPPGLPPITGGPPPPPPPGGLPPITGGPPPPPPPGGLPPISGGPPPPPPPPGGCPPPPPPPPPGGFKGGPPPPPPPGMFAPMAPVIPDYLPPKKVPKVDGPMRKFPWGAHTINPRDIPRESFWVGTNEEQLTSDRMFDRLRTKFATKPAANSGTLGGVLNSKKKVKTAQVIHDDKLLQKLGILQGSIKMSHSELKLAILEVNEKVLTVGFLEQLRSAMPVEKELIDKLRAVNKAQFEEMPEGEQFVTRLLQIQGLPLRLDLVLFKMRFSEVLNELKPAMSSVMEACEEVRASEGFRTFLKLVLATGNFMGGATKNYSSAYAFDMRMLTRLVDTKDVDNRHTLLHHLIEEMKRIDPRRARFALTDFHHCIESSRVNADEIRKTVQLTENNIKKLENCLKVYKIQGERDLFDEKMRPFHEKAVKEFSTVSSMCGKMKNDWESLVKYYAFNDKKYPMEEFFADIRTFSEQYSNAWKELDAEAEAKRKEAEFETQKRKQLQQSQQERKPLQERQAINRVPRTPAAMIRVSTAADKAGVLDELERATGNADFLQTLMSATNSRTPRSGLPARTRGGGRLGGGLDRQRSRHQNALGQLQDLTGCASEPVLSGQFARSRNVPQNDLQRQNMELPSSVKPTTALDRAKAFGVGLPIGQNELKVRVRRKGQPAVPVTNINGTSQISPTHKENDPTGSSSTSSGPASSNTATSSSSGTVVPSTDDLLARLNDF	not soluble
MSSDRIVITGVAINTPIGDTLDLVGNNLLSGKSAIGYWRNFDTSNIYSKIGGQIPEYDIEGKLHAFSNRIPDIVLSRAEKVFKQTTKGVQLSVLMAMEAWLDAGLFEHIIDPFDCGIICGGHNLSDKYLLDQQKIFSDEPEFIDAFSGLNSLDTDHSSSVAQVLNTKGFAYLVGGTCATGNIAIQTAINAIKVDKKQVVAVVCPMASFHPMMLHSLTILEAICYSQYQDTPTKASRPYDINRSGFLPSEGGAVLIFEQAEHAKNRGAKIYAELLGASVNSDANHLGDPSHEGQVRVIQDVLKKCNISPEQVDYVSAHATSTKLGDIVELKSIKRVFGSHAEKLIINAPKSLLGHTMWASGVVEAAIAIWQMRQGEFHQSHNIETLDPAVELNVCASGNVKKEVNIFLNNSFGMGGINSASLFSRYHG	not soluble
MSSEAVDATTLVIIPTYNELENLPLIVDRVRTATPDVHVLIVDDNSPDGTGERADKLAADDDHIFVLHREGKGGLCAAYMAGFQWGLERDYQVLCEMDADGSHAPEQLHLLLAEITNGADLVIGSRYVPGGRVVNWPKNRWLLSKGGNVYISVALGAGLTDMTAGYRAFRREVLEALPLDELSNAGYIFQVEIAYRAVEAGFDVREVPITFTEREIGESKLDGSFVKDSLLEVTKWGLKHRGGQAKELSKEMVGLLNYEWKHFKKRNTWLLEHHHHHH	not soluble
MSSEELEQVWSNIKSEARALAECEPMLASFFHATLLKHENLGSALSYILANKLANPIMPAIAIREVVEEAYRSDAHMIVSAARDILAVRLRDPAVDKYSTPLLYLKGFHALQAYRIGHWLWAQDRKALAIYLQNQVSVAFGVDIHPAATIGCGIMLDHATGIVIGETAVVENDVSILQSVTLGGTGKTSGDRHPKIREGVMIGAGAKILGNIEVGRGAKIGAGSVVLQSVPAHTTAAGVPARIVGKPESDKPSLDMDQHFNGSIQGFEYGDGI	not soluble
MSSENDFVEFSSMFERIIQGRGDGLSRFLPVIVALAAREDDDDQGSTDQTTRRGDPLSPRFVMIGSRSGLDDFFSDGGKQGRSPALKSEVENMPRVVIGEDKEKYGGSCAICLDEWSKGDVAAEMPCKHKFHSKCVEEWLGRHATCPMCRYEMPVEEVEEEKKIGIWIGFSINAGDRRN	not soluble
MSSHPLSISSLSPSYSHRPPGAEQHTVVAGRTSKSAREQCVQGQMVIMQPIRAFVDQHFRAFCQSVELYTISYFQMVPMNPELMHYPNQPHMMPGYPMINAYQQSYLQNPAQWTPEMLLCMQMQMQQMVPGTATNSTYMPPQSKNTVTPNATSPLSQISDRDSGNDTISPPLTSQNRYVFLLRGKKKSCAMFECLGGLYFMVQFVSRNT	not soluble
MSSIRYRRPPIIERRYERTPSYSTIPRDIHVSFYHNNYHRSKILYLNKFNAMEKLIEAAHELYPSNGVYRLFSDSTIGAQNELNDSVQVMECVQNPDHILPHLHIRLEDYRPRSISRNYHEVNVPIIRTPSQHSIHQSVRFNDNKRHHHHHHHDSIRNFVHHDTPCRNCFRIIVGSRYHCLQCPDYDICGDCEKDLVHYEHALLRIVTPRVTSIPDYVTVNAPSYIFPEHRYDIKREHYHWF	not soluble
MSSIVEHVVLFKLNDDDVDSGKINSMVNGINELVNLDQVLHLYCGSIHRLITTTASDFTHVLHSRYRSKEDLNAYAIHPDHVRVVKESESIREDIMAVDWIAEQAPEALAPPLGSIGKITLLKLKENVMEEAKLEIMEVMKEKFEGIDQITVGENFSPGRSKDFSIGSISYFRDLGEIEAVDDQMKLQNDKIRDYVDDTIVVEFNVPSSS	soluble
MSSLGASFVQIKFDDLQFFENCGGGSFGSVYRAKWISQDKEVAVKKLLKIEKEAEILSVLSHRNIIQFYGVILEPPNYGIVTEYASLGSLYDYINSNRSEEMDMDHIMTWATDVAKGMHYLHMEAPVKVIHRDLKSRNVVIAADGVLKICDFGASRFHNHTTHMSLVGTFPWMAPEVIQSLPVSETCDTYSYGVVLWEMLTREVPFKGLEGLQVAWLVVEKNERLTIPSSCPRSFAELLHQCWEADAKKRPSFKQIISILESMSNDTSLPDKCNSFLHNKAEWRCEIEATLERLKKLERDLSFKEQELKERERRLKMWEQKLTEQSNTPLLLPLAARMSEESYFESKTEESNSAEMSCQITATSNGEGHGMNPSLQAMMLMGFGDIFSMNKAGAVMHSGMQINMQAKQNSSKTTSKRRGKKVNMALGFSDFDLSEGDDDDDDDGEEEDNDMDNSE	soluble
MSSLHKSRIADFQDVLKEPSIALEKLRELSFSGIPCEGGLRCLCWKILLNYLPLERASWTSILAKQRELYAQFLREMIIQPGIAKANMGVSREDVTFEDHPLNPNPDSRWNTYFKDNEVLLQIDKDVRRLCPDISFFQRATDYPCLLILDPQNEFETLRKRVEQTTLKSQTVARNRSGVTNQEQNIKPQFFAFRWLTLLLSQEFLLPDVTRIWDSLFADDNRFDFLLLVCCAMLMLIREQLLEGDFTVNMRLLQDYPITDVCQILQKAKELQDSK	soluble

Source: the DeepSol protein solubility set
